The assay concerns the target H3K9me2 peptide (ITC). The assay can be described thus: ITC.

Substance “Arabidopsis thaliana AGDP3 AGD1-4 (1-290) (domain or fragment)” registered a fold decrease of binding in pH 6.0 against pH 7.5 of 5 fold and a stoichiometry N of 1.
